Test results as given in the nanobody polyreactivity screen of Harvey et al. (2022).

Test: yeast display, Sf9 membrane polyspecificity reagent, FACS + sequencing; frameworks hold sequencing errors
Procedure, shortened: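 Synthetic nanobody libraries on Saccharomyces cerevisiae BJ5465 were galactose-induced for 36–48 hours, stained 1 hour at 4 °C with 10% biotinylated, detergent-solubilized Sf9 membrane reagent and enriched on streptavidin microbeads. FACS then separated cells into low and high (top ~1%) gates by anti-HA (expression) and streptavidin (reagent binding) fluorescence. Genes were colony-PCR amplified, MiSeq 2 × 250 sequenced and CDR-length filtered. A clone's polyreactivity label is that of its gate of origin.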

Row | Sequence | polyreactivity (PSR sort gate)
1 | QVQLVESGGGLVQAGGSLRLSCAASGSIFRANAMGWYRQAPGKERELVAAISRRGGNTYYADSVKGRFTISRDNAKNTVYLQMNSLKPEDTAVYYCAADRSEYDYWGQGTQVTVSS | high polyreactivity
2 | QVQLVESGGGLVQAGGSLRLSCAASGSIFGGYGMGWYRQAPGKERELVAVITKRGGSTYYADSVKGRFTISRDNAKNTVYLQMNSLKPEDTAVYYCNKVGYYASVLGYDYWGQGTQVTVSS | high polyreactivity
3 | QVQLVESGGGLVQAGGSLRLSCAASGSTFYPYLIGWYRQAPGKERELLPAISGGGRTYYADSVKGRFTISRDNAKNTVYLQMNSLKPEDTAVYFCAARYTTYSGRGTRPAGIRYDYWGQGTQVTVSS | high polyreactivity
4 | QVQLVESGGGLVQAGGSLRLSCAASGRTFGYNAMGWYRQAPGKERQLVAAINWSGASTYYADSVKGRFTISRDNAKNTVYLQMNSLKPEDTAVYYCAADYSYIYGFDYWGQGTQVTVSS | low polyreactivity
5 | QVQLVESGGGLVQAGGSLRLSCAASGGTFDSYVMGWYRQAPGKERELVAAITWSGGSTYYAESVKGRFTISRDNAKNTVYLQMNSLKPEDTAVYYCNNGGSTTYAYDYWGQGTQVTVSS | low polyreactivity
6 | QVQLVESGGGLVQAGGSLRLSCAASGRTFIFYAMGWYRQAPGKERELVAAISSSGSGTYYADSVKGRFTISRDNAKNTVYFQMNSLKPEDTAVYYCAADVVNSRRRPKYGYWGQGTQVTVSS | low polyreactivity
7 | QVQLVESGGGLVQAGGSLRLSCAASGLSFSYYAMVWYRQAPGKERELVAAITSSGGNTYYADSVKGRFTISRDNANNTVYLQMNSLKPEDTAVYYCNDRRYLRGYGYGYWGQGTQVTVSS | high polyreactivity
8 | QVQLVESGRGLVQAGGSLRLSCAASGSICGYYTMGWYRQAPGKERELVAAITSGGSTNYADSVKGRFTISRDNAKNTVYLQMNSLKPEDTAVYYCAKVSYYPWRYDYWGQGTQVTVSS | low polyreactivity
9 | QVQLVESGGGLVQAGGSLRLSCAASGFIFWSNAMGWYRQAPGKERELVAAISWSGGSTYYADSVKGRFTISRDNAKKTVYLQMNSLKPEDTAVYYCNTLNVQRDEHDYWGQGTQVTVSS | high polyreactivity
10 | QVQLVESGGGLVQAGGSLRLSCAASGGTFYVYAMGWYRQAPGKERELVAAISTSDGITYYADSVKGRFTLSRDNAKNTVYLQMNSLKPEDTAVYYCAAEFFSSFTYAYDYWGQGTQVTVSS | high polyreactivity
11 | QVQLVESGGGLVQAGGSLRLSCAASGRTSYTNAMGWYRQAPGKERELVAAINYSGGSTYYADSVKGRFTISRDNAKNTVYLQMNSLKPEDIAVYYCAAERYYWYTEMGYWGQGTQGTVSS | high polyreactivity
12 | QVQLVESGGGLVQAGGSLRLSCAASGFIFSPYVMGSYRQAPGKERELVAAISSIGGSTYYADSVKGRFTISRDNAKKTVYLQMNSLKPEDTAVYYCADSVYYYASRYDYWGQGTQVTVSS | low polyreactivity
13 | QVQLVESGGGLVQAGGSLRLSCAASGSILIHYTMGWYRQAPGKERELVAAISSTGGSTYYADSVKGRFTISRDNAKNTVYLQMNSLKPEDTAVYYCNAKQYWYYFWAYQQRDVESDYWGQGTQVTVSS | low polyreactivity
14 | QVQLVESGGGLDQAGGSLRLSCAASGIIFVENAMGWYRQAPGKERELVASGDSTYADSVKGRFTISRDNAKNTVYLKMNSRKPEDTAVYYCAAEVYVYHPFVHYDYWGQGTQVTVSS | low polyreactivity
15 | QVQLVESGGGLVQAGGSLRLSCAASGRIFVPYAMGWYRQAPGKVREFVAAISYRGGSTYYADSVKGRFTISRDNAKNTVYLQMNSLKPEDTAVYYCAKVIPYRGKVTLDYWGQGTQVTVSS | low polyreactivity
16 | QVQLVESGGGLVQAGGSLRLSCAASGIMFTLYAMGWYRQAPGKERELVAAISGSGGSTYYAASVKGRFTISRDTAKKTVNLQMNSLKPEDTAVSYCRLAPRYRTGGYWGQGTQVTVSS | high polyreactivity
17 | QVQLVESGGGLVQAGGSLRLSCAASGFIFWLYAMGWSRQAPGKERELVASINWSGGDTYYADSVKGRFTISRDKAKNTVYLQMNSLKPEDTAVYYCAARYWSIYDYWGQGTQVTVSS | low polyreactivity
18 | QDQLVESVGGLVQAGGSLRLSCAASGTISYAGPMGWYRKAPGKEREFVAGIGVCSNTNYADSVKGRYTIIRDNAKNTVYLQMNSLIPEDTAVYYCAVGGYAPLGRPYWGQGTQVTVSS | low polyreactivity
19 | QVQLVESGGGLVQAGGSLRLSCAASGRTFSVYAMGWYRQAPGKERELVAVIRGRGGRTYYADSVKGRFTISRDNAKNTVYLQMNSLKPEDTAVYYCNAVGQIVYGKQYDYWGQGTQVTVSS | high polyreactivity
20 | QVQLVESGGGLVQAGGSLRLRCAASGFIFSYYAMGWYRQAPGKERELVAGISYNGNRTYYADSVEGRFTISRDNAKNTVYLQMNSLKPEDTAVYYCNVVCVLGGWYDLEYDYWGQGTQVTVSS | high polyreactivity
21 | QVQLVESGGGLVQAGGSLRLSCAASGRTFVYYAMGWYRQAPGKEREFVATITSSGGSTYYADSVKGRFTISRDNAKNTVYLQMNSLKPEDTAVYYCAASPYIRYSKVSKYYYWGQGTQVTVSS | high polyreactivity
22 | QDQLVESGGGLVQAGGSLRLSCAASGRTFTYYAMGWYRQAPGKDRELDAGISSGGGSTYYADSVKGRFTISRDHAKNTVYLQMNSLKPEDTAVYYCATAKRQGGYSEYDYWGQGTQVTVSS | high polyreactivity

Row | Sequence | polyreactivity (PSR sort gate)
23 | QVQLVESGGGLVQAGGSLRLSCAASGRIFYAYAMGWYRQAPGKERVFVAAISKRGGSTYYADSVKGRFTISRDNAKNTVYLQMNSRKPEDTAVYYCAADHEAIVRYDYWGQGTQVTVSS | low polyreactivity
24 | QVQLVESAAGLVQAGGSLRLSCAPSGSTFPRYAMGWYRQAPGKERELVAAITKNGGYTYYADSVKGRFTISRDNAKNTVYLQMNSLKPEDTAVYYCAAERWYSCYRVGVSYDYWGQGTQVTVSS | high polyreactivity
25 | QVQLVESGGGLVQAGGSLRLSCAASGFTFGTYAMGWYRQAPGKERELVARITSGGRTNYADSVKGRFTISRDNAKNTVYLQMNSLKPEDTAVYYCNAVNGYYWGSRFDYWGQGTQVTVSS | high polyreactivity
26 | QVQLVESGGGLVQAGGSLRLSCAASGSTFYYYAMGWYSQAPGKERDLVAVISWGGGSTYYADSVKGRFTISRDNAKNTVYLQMNSLKPEDTAVYYCAAVYDAYQTTDEYDYWGQGTQVTVSS | low polyreactivity
27 | QVQLVESGGGLVQAGGSLRLSCAASGITFSHNAMGWYRQAPGKERELVAAITRSGGSTYYADSVKGRFTISRDNAKNTVYLQMNSLKPEDTAVYYCATEDYYRQYGYWSLSRMDHWGQGTQVTVSS | low polyreactivity
28 | QVQLVESGGGLVQAGGSLRLSCAASGSTFDSYAMGWYRQAPGKERELVAAISRSGGRTYYADSVKGRFTISRDNAKNTVYLQMNSLKPEDTAVYYCAAPVKVGHSLSGGDYWGQGTQVTVSS | high polyreactivity
29 | QVQLVESGGGLVQAGGSLRLSCAASGSTIRYNAMGWYRQAPGKERELVAAISRSGGSTYYADSVKGRFTISRDNAKNTVYLQRTSLKTEDTAVYYCAADRGARGDYWGQGTQVTVSS | high polyreactivity
30 | QVQLVESGGGLVQAGGSLRLSCAASGRTFAKYAMGWYRQAPGKERELVAAITSGGRTNYADSVKGRFTISRDNAKNTVYLQMNSLKPEDTAVYYCAARRYVVGYFQSKMDYWGQGTQVTVSS | high polyreactivity
31 | QVQLVESGGGLDQAGGSLLLSCAASGFTFGPYAMGWYRQAPGKERELVATIRSGYSTNYADSVKGRFTISRDNAKNTVYLQMNSLKPEDTAVYYFNREGWHYGPYGYWGQGTQVNVSS | low polyreactivity
32 | QVQLVESGGGLVQAGGSLRLSCAASGSISFRYAMGWYRQAPGKDRELVAAITSGGGTTYYADSVKGRFTISRDNAKNTVYLQMNSMKPEDTAVYYCAKPRARQAFDYWGQGTQVTVSS | high polyreactivity
33 | QVQLVESGGGLVQAGGSLRLSCAASGYTFGVNAMGWYRQAPGKERELVAAISRSGGRTYYADSVKGRFTISRDNAKNTVYLQMTSLKPEDTAVYYCAKDRSGSYYNFPEYDYWGQGTQVTVSS | high polyreactivity
34 | QVQLVESGGGLVQAGGSLRLSCAASGSTFRRNAMGWYRQAPGKERELVAAISAGGGSTYYADSVKGRFTISRDNAKNTVYLQMNSLKPEDTAVYYCNVAGSGVRRMGYWGQGTQVTVSS | high polyreactivity
35 | QVQLVESGGGLVQAGGSLRLSCAASGFIFRGKAMGWYRQAPGKERELVAAISSRGGSTYYADSVKGRFTISRDNAKNSVYLQMNSLKPEDTAVYYCAAGSTSGYFRYYYWGQGTQVTVSS | high polyreactivity
36 | QVQLVESGGGLVQAGGSLRLSCAASGFIFRYYAMGWYRQAPGKERELVAAISASGVSTYYADSVKGRFTISRDNAKNTVYLQMNSLKPEDTAVYYCNKVTRGGYDYWGQGSQVTVSS | high polyreactivity
37 | QVQLVESGGGLVQAGGSLRLSCAASGRILCGNTMGWYRQAPGKERELVAAISWNGGGTYYADSVKGRFTISRDNAKNTVYLQMNSLKPEDTAVYYCAAYKEPYYEEYGYWGQGTQVTVSS | low polyreactivity
38 | QVQLVESGGGLVQAGGSLRLSCAASGRIFPVYVMGWYRQAPGKEREFVASISWRGGSTFYADSVKGRFTISRDNAKNTVYLQMNSLKPEDTAVYYCAADYWSSDSSRGTMYYWGQGTQVTVSS | low polyreactivity
39 | QVQRVESGGGLVQAGGSLRLSCAASGSIFNPYAMGWYRQARGKVRELGAAISKSGTSTSYADSRKGRFTISRDNAKNTVYLQMNSLKPEDTAVYYCAVQVRRRYNYWGQGTQETVSS | high polyreactivity
40 | QVQLVESGGGLVQAGGSLRLSCAASGFTFQYYAMGWYRQAPGKERELVAAISWGGGSTYYADSVKGRFTISRDNAKNTVYLQMNSLKPEDTAVYYCNAYEYLSAGYDYWGQGTQVTVSS | low polyreactivity
41 | QVQLVESGGGLVQAGGSLRLSCAASGFTFLFNTMGWYRQAPGKERELVAGISRGGSTTYADSVKGRFTISRDNAKNTVYLQMNSLKPEDTAVYYCAARTRYNWRGYDYWGQGTQVTVSS | high polyreactivity
42 | QVQLVESGGGLVQAGGSLRLSCAASGGTFYTNVMGGYTQAPGKERELVAAITRSGGSTHYADSVKGRFTISRDNAKNTFYLQMNSLKPEDTEVYYCALGSPYYDGMDYWGQGTQVTVSS | low polyreactivity
43 | QVQLVESGGGLVQAGGSLRLSCAASGSTFPYYVMGWYRQAPGKERELVAAIDESGDRTYYADSVKGRFTISRDNAKNTVYLQMNSLKPEDTAVYYCAAEGWYEYWYDYWGQGTQVTVSS | high polyreactivity
